Ends that are not written are not given here.
Key:
[1] = Stability of cysteine and cystine-containing peptides in 20% v/v DMSO in WFI (UPLC-UV-MS purity); type: physicochemical; settings: room temperature
Experimental: To examine the effect on stability of a peptide that contains cysteine(s) (non-oxidized, C) or cystine(s) (oxidized, C (C)) in a formulation matrix (20% v/v DMSO in WFI (water for injection), four non-oxidized (SEQ ID NO: 1, 2, 3 and 4) and their oxidized, cystine-containing, peptides were manufactured and individually examined in 20% v/v DMSO (aq.)
Each peptide (2.0 mg) was dissolved in 2.0 ml of 0.09% TFA in H2O: acetonitrile (1:1, v/v). Aliquots of 200 μL were transferred to a 1 mL amber vial and then freeze dried overnight. An aliquot (0.2 mg) was then redissolved in 20% v/v DMSO in WFI (1 mL). After swirling for 2 minutes, a sample was analyzed by UPLC-UV-MS. The remainder of the sample was stored at room temperature and analyzed at different time intervals (1 h, 2 h, 3 h, 4 h). The identity and purity of the purified peptides were then determined by UPLC-UV-MS on a Waters Acquity UPLC/TQD system using an C18 Waters Acquity BEH130 analytical column (1.7 μm particle size, 2.1×150 mm, flow 0.4 mL/min) with a linear gradient (5% B to 95% B, linear gradient in 10 min). The absorbance was measured at 220 nm.
MassLynx v4.1 was used to integrate the individual peaks of the chromatogram in the region of the observed peptide-derived signals. The following ApexTrack peak detection parameters were used for integration: peak-to-peak baseline noise was set at automatic, peak width at 5% height was set at automatic, baseline start threshold of 0.05% and baseline end threshold of 0.05%. The detect shoulder function was turned on. The following response thresholds were set: relative height of 0.20 and relative area of 0.10. After the peak of the desired peptide was identified by MS, the corresponding integral of the peak in the UV chromatogram is reported in Table 2 as percentage of the total integrated peaks, purity (% a/a).
Purity of the non-oxidized and oxidized peptide composition over time was evaluated over 4 h. Additional mass adducts, consistent with the formation of intermolecular or intramolecular disulfide bonds, increased over time in all spectra of cysteine-containing peptides compared to cystine-containing peptides. The purity of the non-oxidized peptides set forth in SEQ ID NO: 1, 3 and 4 declined from >90% a/a at to less than 80% a/a with the lowest stability observed for SEQ ID NO: 1 with a purity of 64% a/a after 4 h. For the cystine-containing peptide analogs, the purity remained >90% a/a after 4 h.

[2] = Stability of peptide mixtures under long term and accelerated storage (UPLC); type: physicochemical; settings: peptide in mixture of 6 peptides
Experimental: To examine the effect on stability of peptides that contain cystine (oxidized, C (C)) present in a mixture of 6 peptides, two examples of mixtures of both non-cysteine-containing (NCC1-6) and cystine-containing (SEQ ID NO: 1-6) peptides were assessed. Typical chromatograms of the two mixtures are depicted in FIG. 2. Both mixtures were placed on two different storage conditions, ‘long term storage condition’ (i.e. −20±5° C.) and ‘accelerated storage condition’ (i.e. 5±3° C.).
The purity, the level of impurities, and the quantification per peptide of both mixtures are determined by reversed phase rapid UPLC using a mobile phase gradient of ACN/IPA and water with TFA, and UV detection at λ=220 nm. The method quantifies main peaks and impurities in mixtures of peptides. The reporting threshold for the method is 0.10% a/a.
Both mixtures of six peptides were stored under the two conditions described and by using the analytical method as described. The stability was monitored. The quantity of each of the peptides present in the mix (assay values), the purity, and the individual impurities were measured at several timepoints over a period of 3 months. […] Furthermore, focussing on the individual impurities it is shown that no significant degradation has taken place as all levels remain constant and no new impurities have formed.

Row | Sequence | Purity (% a/a) ([1]; Time 0 h) | Purity (% a/a) ([1]; Time 1 h) | Purity (% a/a) ([1]; Time 2 h) | Purity (% a/a) ([1]; Time 3 h) | Purity (% a/a) ([1]; Time 4 h) | Assay (net peptide content) (mg/vial) ([2]; Initial) | Assay (net peptide content) (mg/vial) ([2]; Storage at 5 ± 3° C., T1M) | Assay (net peptide content) (mg/vial) ([2]; Storage at 5 ± 3° C., T2M) | Assay (net peptide content) (mg/vial) ([2]; Storage at 5 ± 3° C., T3M) | Assay (net peptide content) (mg/vial) ([2]; Storage at −20 ± 5° C., T2M) | Assay (net peptide content) (mg/vial) ([2]; Storage at −20 ± 5° C., T3M)
1 | HLSLRGLPVCAFSSAGPCALRFTSA [Cystine(C(C)) containing SEQ ID NO: 1] | 97.14 | 96.67 | 95.10 | 95.97 | 95.74 | 0.24 | 0.23 | 0.24 | 0.23 | 0.24 | 0.24
2 | VLSRKYTSFPWLLGCTANWILRGTSFVYVPSALNPA [Cystine(C(C)) containing SEQ ID NO: 3] (VLSRKYTSFPWLLGC(Cys)TANWILRGTSFVYVPSALNPA) [HBV Pol fragment SLP with cysteinylated cysteine] | 97.44 | 97.48 | 97.28 | 97.30 | 97.34 | 0.24 | 0.23 | 0.24 | 0.25 | 0.24 | 0.25
